Drawing on patent publication US5811533, this text covers Kd for 16 sequences.

For the first data set, the system named is T1, VEGF165 (recombinant human vascular endothelial growth factor, 165 aa form) (Homo sapiens), P15692-4.
T1 sequence: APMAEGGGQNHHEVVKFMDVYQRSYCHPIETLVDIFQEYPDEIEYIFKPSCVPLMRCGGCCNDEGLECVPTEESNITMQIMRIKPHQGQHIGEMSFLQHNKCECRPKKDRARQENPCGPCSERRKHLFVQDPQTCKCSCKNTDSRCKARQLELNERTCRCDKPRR
Nature of the data set: filter.
Conditions: not given
For “ATCCGCCTGATTAGCGATACTGGTGGACTAGAGGNCAGCAAACGATCCTTGGTTCGCGTCCACTTGAGCAAAATCACCTGCAGGGG [ssDNA 32]”, the Kd came to 2 nM. In the case of “ATCCGCCTGATTAGCGATACTGGTGTGAACCAGACCTACNGGAACGTTATCGCTTGTGACTTGAGCAAAATCACCTGCAGGGG [ssDNA 44]”, the Kd worked out at 0.4 nM.

Regarding “CTACCTACGATCTGACTAGCACAAGGGGTCCTGNNGAATGGGGGAATACGCTAGCCGAAGCTTACTCTCATGTAGTTCCT [ssDNA b55]”, the Kd was 15 nM.

In the case of “CTACCTACGATCTGACTAGCATCCTTCCGAATGGGGGAAATGGCGNCCCAGCTTACTCTCATGTAGTTCCT [ssDNA b89]”, the Kd came out at 2 nM. On the same count and under the same terms, the figure for “CTACCTACGATCTGACTAGCCCACTGCAGAGAGTCAACCTTACGANGCCAAGGTTGCGGTGCTTAGCTTACTCTCATGTAGTTCCT [ssDNA b97]” is above 1 nM. On the same count and under the same terms, the figure for “CTACCTACGATCTGACTAGCCCACTGCATAGAGAGTCGCAAGACACGGTGCTTTATTCNCCGCTTAGCTTACTCTCATGTAGTTCCT [ssDNA b62]” is 2.9 nM; for “CTACCTACGATCTGACTAGCCCACTGCATAGAGATACTGGATTCGACNNNCCAAAGTTTCGGTGCTTAGCTTACTCTCATGTAGTTCCT [ssDNA b96]” it is 1.5 nM. Same read-out and setting: next, “CTACCTACGATCTGACTAGCTGCNNGCGGGCGGTTCTCCGGATGGGACCATAAGGCTTTAGCTTAGCTTACTCTCATGTAGTTCCT [ssDNA b54]”: 2.5 nM. With “TGGACTAGAGGNCAGCAAACGATCCTTGGTTCGCGTCC [32t]”, the equilibrium dissociation constant (Kd) worked out at 17 nM.

Still in this data set, the particulars now being: 2'-NH2 pyrimidines; random pool.
On to “GGGAGACAAGAAUAACGCUCAANNNNNNNNNNNNNNNNNNNNNNNNNNNNNNUUCGACAGGAGGCUCACAACAGGC [Random RNA A (30N8)]”, for which the Kd was determined as 83 nM. The same measure, in the same setting: the figure for “GGGAGGACGAUGCGGNNNNNNNNNNNNNNNNNNNNNNNNNNNNNNNNNNNNNNNNNNNNNNNNNNCAGACGACUCGCCCGA [Random RNA B (50N7)]” is 240 nM.

Staying with this data set, now noted: clone listed in families 1 and 2.
As for “CTACCTACGATCTGACTAGCACGCAAGAGAGGTCNCCGAATGGCAGTCTCAGCCGCTAACAGCTTACTCTCATGTAGTTCCT [ssDNA b91]”, the Kd came out at 3.9 nM.

The same data set, now with this note: random pool.
“ATCCGCCTGATTAGCGATACTNNNNNNNNNNNNNNNNNNNNNNNNNNNNNNNNNNNNNNNNACTTGAGCAAAATCACCTGCAGGGG [starting random ssDNA pool]”: the Kd stood at 200 nM. Still for that read-out and setting: next, “GGGAGCUCAGAAUAAACGCUCAANNNNNNNNNNNNNNNNNNNNNNNNNNNNNNUUCGACAUGAGGCCCGGAUCCGGC [random RNA pool (30N)]”: 200 nM.

The next data set has as its system PDGF. Nature of the data set: filter. The settings on record: specificity.
In turn, “GGAAGCUUGAUGGGUGACACACGUCAUGCCGAGCU [ligand 44t]” displayed a Kd of 600 nM. Sequence “GGCCGGUAGUCGCAUGGCCCAUCGCGCCCGG [ligand 100t]” displayed a Kd of 600 nM.

Broadly, the Kd is the free concentration of one partner at which half of the binding sites on the other are occupied at equilibrium, for simple one-to-one binding.
